The target of assay [1] is native complement component C3 (human). Briefly: SPR.
The target of the next assay is C3 methylamine (human, treated with methylamine). The assay is described as follows: SPR.
The target of assay [2] is T1, C3b (proteolytic fragment of complement component C3) (human, UniProt P01024 749-1663; P01024 749-1663). Briefly: SPR.
Assay [3] concerns the target iC3b (human). Briefly: BLI.
Assay [4] concerns the target T1, C3b (proteolytic fragment of complement …). Briefly: BLI.
Assay [5] concerns the target iC3b (human). The assay is described as follows: BLI. This is another data set of the same source.
The target of assay [6] is T1, C3b (proteolytic fragment of complement …). The assay is described as follows: BLI. The source holds these as a separate data set.

Consider 3 molecules from article PMC9352930 (2022).

T1 sequence (P01024 23-667, chain 1 of 2): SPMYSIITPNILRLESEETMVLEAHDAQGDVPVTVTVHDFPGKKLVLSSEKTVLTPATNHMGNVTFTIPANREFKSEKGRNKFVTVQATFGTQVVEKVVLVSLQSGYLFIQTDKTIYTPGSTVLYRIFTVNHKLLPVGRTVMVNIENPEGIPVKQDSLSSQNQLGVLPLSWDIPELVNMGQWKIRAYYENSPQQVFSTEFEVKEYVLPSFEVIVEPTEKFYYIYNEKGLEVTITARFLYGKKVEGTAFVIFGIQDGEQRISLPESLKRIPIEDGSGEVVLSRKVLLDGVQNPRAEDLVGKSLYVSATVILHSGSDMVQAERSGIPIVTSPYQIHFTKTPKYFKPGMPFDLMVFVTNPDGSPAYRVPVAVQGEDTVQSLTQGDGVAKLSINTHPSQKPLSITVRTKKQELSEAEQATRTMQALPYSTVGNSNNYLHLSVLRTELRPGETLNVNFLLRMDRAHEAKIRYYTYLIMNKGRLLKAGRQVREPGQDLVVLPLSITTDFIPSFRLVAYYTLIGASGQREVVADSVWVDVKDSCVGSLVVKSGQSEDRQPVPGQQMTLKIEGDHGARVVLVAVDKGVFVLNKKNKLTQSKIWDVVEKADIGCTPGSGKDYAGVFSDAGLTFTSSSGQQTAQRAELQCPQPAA
T1 sequence (P01024 749-1663, chain 2 of 2): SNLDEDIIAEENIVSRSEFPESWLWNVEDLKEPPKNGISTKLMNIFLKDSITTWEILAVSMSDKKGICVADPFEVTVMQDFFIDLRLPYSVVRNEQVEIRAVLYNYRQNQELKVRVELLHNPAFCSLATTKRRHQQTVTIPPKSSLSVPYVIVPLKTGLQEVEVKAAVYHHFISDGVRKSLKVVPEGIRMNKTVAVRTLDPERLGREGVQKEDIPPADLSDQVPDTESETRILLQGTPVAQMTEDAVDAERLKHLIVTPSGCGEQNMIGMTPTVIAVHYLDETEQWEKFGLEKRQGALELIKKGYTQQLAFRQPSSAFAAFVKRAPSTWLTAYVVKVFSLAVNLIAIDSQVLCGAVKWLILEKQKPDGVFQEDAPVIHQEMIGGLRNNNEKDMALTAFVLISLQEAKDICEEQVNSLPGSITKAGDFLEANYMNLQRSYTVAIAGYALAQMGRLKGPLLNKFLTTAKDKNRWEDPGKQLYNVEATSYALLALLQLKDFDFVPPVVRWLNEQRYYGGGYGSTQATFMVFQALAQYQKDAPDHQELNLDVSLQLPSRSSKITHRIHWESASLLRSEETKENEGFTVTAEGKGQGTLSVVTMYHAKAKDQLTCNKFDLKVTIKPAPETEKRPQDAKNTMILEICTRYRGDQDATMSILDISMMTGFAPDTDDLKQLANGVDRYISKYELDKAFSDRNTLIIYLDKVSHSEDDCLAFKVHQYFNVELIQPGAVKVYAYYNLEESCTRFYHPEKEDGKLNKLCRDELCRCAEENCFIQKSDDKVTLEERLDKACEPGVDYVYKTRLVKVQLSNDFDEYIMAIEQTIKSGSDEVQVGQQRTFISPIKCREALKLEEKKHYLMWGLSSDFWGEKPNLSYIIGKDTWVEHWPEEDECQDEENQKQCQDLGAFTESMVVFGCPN
Sequence of iC3b (human) (chain, as listed by the source, chain 1 of 3): as the sequence (P01024 23-667, chain 1 of 2) above
Sequence of iC3b (human) (chain, as listed by the source, chain 2 of 3): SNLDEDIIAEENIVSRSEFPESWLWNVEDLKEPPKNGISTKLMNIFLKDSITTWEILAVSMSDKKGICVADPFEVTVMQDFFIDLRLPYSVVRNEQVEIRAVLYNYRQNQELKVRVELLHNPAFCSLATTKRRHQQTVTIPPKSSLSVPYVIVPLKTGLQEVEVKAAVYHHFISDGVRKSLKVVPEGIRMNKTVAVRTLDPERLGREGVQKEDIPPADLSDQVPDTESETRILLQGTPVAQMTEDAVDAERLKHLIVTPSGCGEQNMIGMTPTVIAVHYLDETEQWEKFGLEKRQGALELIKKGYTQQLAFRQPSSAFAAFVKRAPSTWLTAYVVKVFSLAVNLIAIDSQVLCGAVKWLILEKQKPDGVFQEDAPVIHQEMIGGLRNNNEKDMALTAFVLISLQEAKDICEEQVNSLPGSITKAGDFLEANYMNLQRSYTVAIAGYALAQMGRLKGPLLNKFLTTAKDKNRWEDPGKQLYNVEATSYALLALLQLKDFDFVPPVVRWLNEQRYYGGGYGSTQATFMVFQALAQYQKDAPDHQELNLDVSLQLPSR
Sequence of iC3b (human) (chain, as listed by the source, chain 3 of 3): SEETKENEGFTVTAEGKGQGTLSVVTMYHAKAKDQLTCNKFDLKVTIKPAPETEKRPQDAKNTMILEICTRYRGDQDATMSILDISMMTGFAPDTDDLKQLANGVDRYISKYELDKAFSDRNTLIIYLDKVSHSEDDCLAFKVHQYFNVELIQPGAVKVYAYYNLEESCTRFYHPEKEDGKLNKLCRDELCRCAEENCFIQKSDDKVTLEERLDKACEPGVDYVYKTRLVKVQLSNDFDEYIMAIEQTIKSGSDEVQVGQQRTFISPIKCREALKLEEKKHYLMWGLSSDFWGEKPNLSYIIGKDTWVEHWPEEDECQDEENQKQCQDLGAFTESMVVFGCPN
Sequence of C3 methylamine (human, treated with methylamine) (chain, as listed by the source, chain 1 of 2): as the sequence (P01024 23-667, chain 1 of 2) above
Sequence of C3 methylamine (human, treated with methylamine) (chain, as listed by the source, chain 2 of 2): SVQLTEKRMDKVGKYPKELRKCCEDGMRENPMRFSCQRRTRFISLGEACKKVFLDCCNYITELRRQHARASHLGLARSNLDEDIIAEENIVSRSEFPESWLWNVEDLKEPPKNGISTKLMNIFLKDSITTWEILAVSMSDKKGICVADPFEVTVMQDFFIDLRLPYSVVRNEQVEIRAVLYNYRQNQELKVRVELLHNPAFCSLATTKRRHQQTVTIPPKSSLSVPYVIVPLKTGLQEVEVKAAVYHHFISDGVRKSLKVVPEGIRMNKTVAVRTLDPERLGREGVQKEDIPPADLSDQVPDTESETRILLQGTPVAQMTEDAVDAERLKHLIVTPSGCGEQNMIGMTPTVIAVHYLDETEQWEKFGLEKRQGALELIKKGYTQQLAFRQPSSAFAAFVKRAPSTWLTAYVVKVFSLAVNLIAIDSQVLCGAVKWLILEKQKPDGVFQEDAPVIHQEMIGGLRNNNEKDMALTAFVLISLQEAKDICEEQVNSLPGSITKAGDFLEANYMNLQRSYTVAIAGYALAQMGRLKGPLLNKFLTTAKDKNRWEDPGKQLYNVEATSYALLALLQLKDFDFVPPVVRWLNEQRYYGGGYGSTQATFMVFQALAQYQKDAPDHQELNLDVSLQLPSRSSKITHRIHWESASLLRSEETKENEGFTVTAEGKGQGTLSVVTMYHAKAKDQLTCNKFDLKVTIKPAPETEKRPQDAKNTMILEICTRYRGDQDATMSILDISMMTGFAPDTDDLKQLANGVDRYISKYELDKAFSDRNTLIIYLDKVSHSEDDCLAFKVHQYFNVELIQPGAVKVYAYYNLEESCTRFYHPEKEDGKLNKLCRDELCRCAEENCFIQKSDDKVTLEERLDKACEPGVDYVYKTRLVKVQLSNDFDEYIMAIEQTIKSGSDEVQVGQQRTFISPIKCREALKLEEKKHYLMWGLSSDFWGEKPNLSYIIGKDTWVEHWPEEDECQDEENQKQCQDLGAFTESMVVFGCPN
Sequence of native complement component C3 (human) (chain, as listed by the source, chain 1 of 2): as the sequence (P01024 23-667, chain 1 of 2) above
Sequence of native complement component C3 (human) (chain, as listed by the source, chain 2 of 2): as the sequence (chain, as listed by the source, chain 2 of 2) above

B1: avi-tagged, biotinylated EWE nanobody (VHH)
VHH: QVQLVETGGGLVQAGGSLRLSCAASGSIFSINAMGWFRQAPGKEREFVATINRSGGRTYYADSVKGRFTISRDNGKNMVYLQMHSLKPEDTAIYYCAAGTGWSPQTDNEYNYWGQGTQVTVSS
modifications: biotin
In the case of B1, the off-rate constant (koff) stood at 0.000105 s⁻¹ in assay [1], 7.6e-05 s⁻¹ with C3 methylamine and 8.6e-05 s⁻¹ in assay [2].

B2: EWE-hC3Nb1 nanobody, bacterially expressed (VHH)
VHH: B1 VHH
In the case of B2, the koff was determined as 0.00026 s⁻¹ with iC3b [3] and 0.00037 s⁻¹ in assay [4].

B3: EWEnH fusion protein (EWE fused to FH CCP2-4) (other)
chain: EWEQVQLVETGGGLVQAGGSLRLSCAASGSIFSINAMGWFRQAPGKEREFVATINRSGGRTYYADSVKGRFTISRDNGKNMVYLQMHSLKPEDTAIYYCAAGTGWSPQTDNEYNYWGQGTQVTVSSRPCGHPGDTPFGTFTLTGGNVFEYGVKAVYTCNEGYQLLGEINYRECDTDGWTNDIPICEVVKCLPVTAPENGKIVSSAMEPDREYHFGQAVRFVCNSGYKIEGDEEMHCSDDGFWSKEKPKCVEISCKSPDVINGSPISQKIIYKENERFQYKCNMGYEYSERGDAVCTESGWRPLPSCEE
B3: the Kd with iC3b [5] came to 8.9 nM; in assay [6], 7.1 nM.
